Reference: patent US20050153310A1 (PROMEGA, published 2005)

Molecular target: FKBP (FK506 binding protein) (UniProt P62942 2-108)
Experiment: cell-based or functional assay

Sequence of FKBP (FK506 binding protein) (P62942 2-108): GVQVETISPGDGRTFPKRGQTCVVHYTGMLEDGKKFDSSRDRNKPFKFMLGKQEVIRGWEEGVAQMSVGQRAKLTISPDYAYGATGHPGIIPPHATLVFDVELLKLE

- fold decrease in relative luminescence of the in vitro translated double fusion FRB-luc2-FKBP with 0.2 uM rapamycin, compared to the control reactions: 20 fold
- luminescent signal of D293 cells transfected with FRB-Luc2-FKBP under the CMV promoter, with rapamycin: ≤ 2 fold
- luminescent signal of D293 cells transfected with FRB-Luc2-FKBP under the TK promoter, with rapamycin: ≤ 5 fold
B1: FRB (rapamycin binding protein) (other)
chain: ILWHEMWHEGLEEASRLYFGERNVKGMFEVLEPLHAMMERGPQTLKETSFNQAYGRDLMEAQEWCRKYMKSGNVKDLTQAWDLYYHVFRRISK
